# Experimental data from patent US20200199241A1 (Chugai, published 2020).
# Changes are numbered by the printed parent chain. Numbers in names are those of the source.
# B1: IgG1-F301 (antibody)
# heavy: QVQLQESGPGLVKPSETLSLTCAVSGHSISHDHAWSWVRQPPGEGLEWIGFISYSGITNYNPSLQGRVTISRDNSKNTLYLQMNSLRAEDTAVYYCARSLARTTAMDYWGEGTLVTVSSASTKGPSVFPLAPSSKSTSGGTAALGCLVKDYFPEPVTVSWNSGALTSGVHTFPAVLQSSGLYSLSSVVTVPSSSLGTQTYICNVNHKPSNTKVDKKVEPKSCDKTHTCPPCPAPELLGGPKVFLFPPKPKDTLYISRTPEVTCVVVDVSHEDPEVKFNWYVDGVEVHNAKTKPREEQYNSTYRVVSVLTPLHAAWLNGKEYKCKVSNKALPAPIEKTISKAKGQPREPQVYTLPPSRDELTKNQVSLTCLVKGFYPSDIAVEWESNGQPENNYKTTPPVLDSDGSFFLYSKLTVDKSRWQQGNVFSCSVYHEALHYHYTQKSLSLSP
# light: not shown
# notes: EU numbering; copies: 2 + 2
# B2: IgG1-F374 (antibody)
# heavy: B1 heavy with Y254W, T258E, A313Q, A314D
# light: not shown
# notes: EU numbering; copies: 2 + 2
# B3: IgG1-F344 (antibody)
# heavy: B1 heavy with A313Q, A314D, Y430L
# light: not shown
# notes: EU numbering; copies: 2 + 2
# B4: IgG1-F325 (antibody)
# heavy: B1 heavy with D272F, T309Q, A314D, Y430M
# light: not shown
# notes: EU numbering; copies: 2 + 2
# B5: IgG1-F328 (antibody)
# heavy: B1 heavy with D272F, A313Q, A314D, Y430I
# light: not shown
# notes: EU numbering; copies: 2 + 2
# B6: IgG1-F365 (antibody)
# heavy: B1 heavy with K241S, Y254M, P259V, V307A, T309Q, P310V, A313Q, A314D, Y430L
# light: not shown
# notes: EU numbering; copies: 2 + 2
# B7: IgG1-F369 (antibody)
# heavy: B1 heavy with K241S, P259V, T309Q, P310V, A313Q, A314D, Y430I
# light: not shown
# notes: EU numbering; copies: 2 + 2
# B8: IgG1-F333 (antibody)
# heavy: B1 heavy with D272F, T309Q, P310V, L311E, A314D, Y430M
# light: not shown
# notes: EU numbering; copies: 2 + 2
# B9: IgG1-F330 (antibody)
# heavy: B1 heavy with D272F, L311E, A313Q, A314D, Y430M
# light: not shown
# notes: EU numbering; copies: 2 + 2
# B10: IgG1-F359 (antibody)
# heavy: B1 heavy with K241S, Y254M, P259V, T309Q, P310V, A313Q, A314D, Y430I
# light: not shown
# notes: EU numbering; copies: 2 + 2
# B11: IgG1-F337 (antibody)
# heavy: B1 heavy with D272F, T309Q, P310V, A314D, Y430I
# light: not shown
# notes: EU numbering; copies: 2 + 2
# B12: IgG1-F349 (antibody)
# heavy: B1 heavy with L311P, A313Q, A314D, Y430L
# light: not shown
# notes: EU numbering; copies: 2 + 2
# B13: IgG1-F343 (antibody)
# heavy: B1 heavy with D272F, A313Q, A314D, Y430L
# light: not shown
# notes: EU numbering; copies: 2 + 2
# B14: IgG1-F334 (antibody)
# heavy: B1 heavy with D272F, A313Q, A314D, N327G, Y430I
# light: not shown
# notes: EU numbering; copies: 2 + 2
# B15: IgG1-F317 (antibody)
# heavy: B1 heavy with D272F, A313Q, A314D
# light: not shown
# notes: EU numbering; copies: 2 + 2
# B16: IgG1-F375 (antibody)
# heavy: B1 heavy with Y254W, N288E, A313Q, A314D
# light: not shown
# notes: EU numbering; copies: 2 + 2
# B17: IgG1-F320 (antibody)
# heavy: B1 heavy with A313Q, A314D, N327G, E384A, Y430I
# light: not shown
# notes: EU numbering; copies: 2 + 2
# B18: IgG1-F307 (antibody)
# heavy: B1 heavy with Y254W, A313Q, A314D, E384A, Y430M
# light: not shown
# notes: EU numbering; copies: 2 + 2
# B19: IgG1-F316 (antibody)
# heavy: B1 heavy with D272F, P310V, A313Q, A314D
# light: not shown
# notes: EU numbering; copies: 2 + 2
# B20: IgG1-F376 (antibody)
# heavy: B1 heavy with T258E, D272F, N288E, A313Q, A314D, Y430M
# light: not shown
# notes: EU numbering; copies: 2 + 2
# B21: IgG1-F310 (antibody)
# heavy: B1 heavy with Y254W, A313Q, A314D, E384A, Y430I
# light: not shown
# notes: EU numbering; copies: 2 + 2
# B22: IgG1-F322 (antibody)
# heavy: B1 heavy with D272F, T309P, A313Q, A314D, Y430M
# light: not shown
# notes: EU numbering; copies: 2 + 2
# B23: IgG1-F318 (antibody)
# heavy: B1 heavy with A313Q, A314D, Y430I
# light: not shown
# notes: EU numbering; copies: 2 + 2
# B24: IgG1-F377 (antibody)
# heavy: B1 heavy with Y254W, T309P, P310V, A313Q, A314D
# light: not shown
# notes: EU numbering; copies: 2 + 2
# B25: IgG1-F352 (antibody)
# heavy: B1 heavy with P310V, L311P, A313Q, A314D, Y430L
# light: not shown
# notes: EU numbering; copies: 2 + 2
# B26: IgG1-F364 (antibody)
# heavy: B1 heavy with K241S, Y254M, P259V, T309Q, P310V, A314D, N327G, Y430L
# light: not shown
# notes: EU numbering; copies: 2 + 2
# B27: IgG1-F363 (antibody)
# heavy: B1 heavy with K241S, Y254M, P259V, T309Q, P310V, A314D, Y430L
# light: not shown
# notes: EU numbering; copies: 2 + 2
# B28: IgG1-F308 (antibody)
# heavy: B1 heavy with Y254W, A313Q, A314D, E384A
# light: not shown
# notes: EU numbering; copies: 2 + 2
# B29: IgG1-F304 (antibody)
# heavy: B1 heavy with K241S, Y254W, A313Q, A314D
# light: not shown
# notes: EU numbering; copies: 2 + 2
# B30: IgG1-F356 (antibody)
# heavy: B1 heavy with D272F, L311E, A313Q, A314D, P389E, Y430M
# light: not shown
# notes: EU numbering; 'Y308P' as printed, probably V308P; copies: 2 + 2
# B31: IgG1-F306 (antibody)
# heavy: B1 heavy with K241S, Y254W, A313Q, A314D, E384A, Y430M
# light: not shown
# notes: EU numbering; copies: 2 + 2
# B32: IgG1-F326 (antibody)
# heavy: B1 heavy with D272F, T309Q, P310V, A314D, Y430M
# light: not shown
# notes: EU numbering; copies: 2 + 2
# B33: IgG1-F312 (antibody)
# heavy: B1 heavy with Y254W, P310V, A313Q, A314D, E382A, E384A, Y430F
# light: not shown
# notes: EU numbering; copies: 2 + 2
# B34: IgG1-F331 (antibody)
# heavy: B1 heavy with D272F, A313Q, A314D, P389E, Y430M
# light: not shown
# notes: EU numbering; copies: 2 + 2
# B35: IgG1-F321 (antibody)
# heavy: B1 heavy with D272F, A313Q, A314D, N327G, Y430M
# light: not shown
# notes: EU numbering; copies: 2 + 2
# B36: IgG1-F360 (antibody)
# heavy: B1 heavy with K241S, Y254M, P259V, T309Q, P310V, A313Q, A314D, Y430V
# light: not shown
# notes: EU numbering; copies: 2 + 2
# B37: IgG1-F339 (antibody)
# heavy: B1 heavy with D272F, L311E, A313Q, A314D, Y430I
# light: not shown
# notes: EU numbering; copies: 2 + 2
# B38: IgG1-F303 (antibody)
# heavy: B1 heavy with K241S, T309P, P310V, A313Q, A314D
# light: not shown
# notes: EU numbering; copies: 2 + 2
# B39: IgG1-F368 (antibody)
# heavy: B1 heavy with D272F, A313Q, A314D, N327G, E384A, Y430I
# light: not shown
# notes: EU numbering; copies: 2 + 2
# B40: IgG1-F354 (antibody)
# heavy: B1 heavy with T309Q, A313Q, A314D, Y430L
# light: not shown
# notes: EU numbering; copies: 2 + 2
# B41: IgG1-F338 (antibody)
# heavy: B1 heavy with D272F, N288E, A313Q, A314D, Y430I
# light: not shown
# notes: EU numbering; copies: 2 + 2
# B42: IgG1-F379 (antibody)
# heavy: B1 heavy with Y254W, T258E, A314D
# light: not shown
# notes: EU numbering; copies: 2 + 2
# B43: IgG1-F336 (antibody)
# heavy: B1 heavy with D272F, T309Q, A314D, Y430I
# light: not shown
# notes: EU numbering; copies: 2 + 2
# B44: IgG1-F372 (antibody)
# heavy: B1 heavy with Y254W, A313Q, A314D
# light: not shown
# notes: EU numbering; copies: 2 + 2
# B45: IgG1-F314 (antibody)
# heavy: B1 heavy with K241S, T258E, P310V
# light: not shown
# notes: EU numbering; copies: 2 + 2
# B46: IgG1-F362 (antibody)
# heavy: B1 heavy with K241S, Y254M, P259V, T309Q, P310V, A313Q, A314D, N327G, Y430L
# light: not shown
# notes: EU numbering; copies: 2 + 2
# B47: IgG1-F380 (antibody)
# heavy: B1 heavy with Y254W, T258E, N288E, A313Q, A314D
# light: not shown
# notes: EU numbering; copies: 2 + 2
# B48: IgG1-F305 (antibody)
# heavy: B1 heavy with K241S, T258E, A313Q, A314D, E384A, Y430M
# light: not shown
# notes: EU numbering; copies: 2 + 2
# B49: IgG1-F315 (antibody)
# heavy: B1 heavy with P310V, A313Q, A314D
# light: not shown
# notes: EU numbering; copies: 2 + 2
# B50: IgG1-F353 (antibody)
# heavy: B1 heavy with P310V, L311R, A313Q, A314D, Y430L
# light: not shown
# notes: EU numbering; copies: 2 + 2
# B51: IgG1-F313 (antibody)
# heavy: B1 heavy with T309P, P310V, A313Q, A314D
# light: not shown
# notes: EU numbering; copies: 2 + 2
# B52: IgG1-F324 (antibody)
# heavy: B1 heavy with D272F, T309Q, A313Q, A314D, Y430M
# light: not shown
# notes: EU numbering; copies: 2 + 2
# B53: IgG1-F335 (antibody)
# heavy: B1 heavy with T258E, D272F, A313Q, A314D, Y430I
# light: not shown
# notes: EU numbering; copies: 2 + 2
# B54: IgG1-F311 (antibody)
# heavy: B1 heavy with Y254W, A313Q, A314D, Y430F
# light: not shown
# notes: EU numbering; copies: 2 + 2
# B55: IgG1-F350 (antibody)
# heavy: B1 heavy with L311R, A313Q, A314D, Y430L
# light: not shown
# notes: EU numbering; copies: 2 + 2
# B56: IgG1-F358 (antibody)
# heavy: B1 heavy with T309Q, P310V, A313Q, A314D, Y430M
# light: not shown
# notes: EU numbering; copies: 2 + 2
# B57: IgG1-F373 (antibody)
# heavy: B1 heavy with Y254W, A314D
# light: not shown
# notes: EU numbering; copies: 2 + 2
# B58: IgG1-F323 (antibody)
# heavy: B1 heavy with T258E, D272F, A313Q, A314D, Y430M
# light: not shown
# notes: EU numbering; copies: 2 + 2
# B59: IgG1-F367 (antibody)
# heavy: B1 heavy with E260H, D272F, T309Q, A314D, Y430M
# light: not shown
# notes: EU numbering; copies: 2 + 2
# B60: IgG1-F302 (antibody)
# heavy: B1 heavy with K241S, T258E, T309P, P310V, A313Q, A314D, Y430M
# light: not shown
# notes: EU numbering; copies: 2 + 2
# Target: T1, human FcRn (soluble human FcRn complexed with β2-microglobulin) (human, UniProt P61769 21-119, limits assumed)
# T1 construct: also called hFcRn
# Assay: SPR, pH 7.0;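 note: antibodies captured on a Protein L sensor chip with human FcRn injected as analyte, KD calculated from fitted association and dissociation rate constants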
row,Kd,Binder
1,72 nM,B1
2,12 nM,B2
3,30 nM,B3
4,21 nM,B4
5,19 nM,B5
6,51 nM,B6
7,75 nM,B7
8,74 nM,B8
9,36 nM,B9
10,420 nM,B10
11,56 nM,B11
12,150 nM,B12
13,32 nM,B13
14,19 nM,B14
15,110 nM,B15
16,5.5 nM,B16
17,20 nM,B17
18,36 nM,B18
19,700 nM,B19
20,9.6 nM,B20

row,Kd,Binder
1,94 nM,B21
2,92 nM,B22
3,18 nM,B23
4,130 nM,B24
5,600 nM,B25
6,35 nM,B26
7,41 nM,B27
8,19 nM,B28
9,16 nM,B29
10,34 nM,B30
11,36 nM,B31
12,75 nM,B32
13,450 nM,B33
14,30 nM,B34
15,32 nM,B35
16,1300 nM,B36
17,19 nM,B37
18,670 nM,B38
19,20 nM,B39
20,28 nM,B40

row,Kd,Binder
1,7.7 nM,B41
2,9 nM,B42
3,14 nM,B43
4,13 nM,B44
5,320 nM,B45
6,54 nM,B46
7,5.6 nM,B47
8,27 nM,B48
9,680 nM,B49
10,1100 nM,B50
11,650 nM,B51
12,28 nM,B52
13,15 nM,B53
14,28 nM,B54
15,170 nM,B55
16,100 nM,B56
17,11 nM,B57
18,27 nM,B58
19,15 nM,B59
20,190 nM,B60
